Data as given in patent publication US20080182978A1, “ANTI-NGF ANTIBODIES AND METHODS USING SAME” (RINAT NEUROSCIENCE CORP, priority 2002, published 2008).
Where a chain is given by its changes, count along the chain named. Names may count otherwise. One block for each molecule: values may come before it.

Experiments:
[1] = target: rat NGF (rat) (UniProt P25427); assay: cell-based or functional assay
[2] = target: T1, human NGF (Homo sapiens, UniProt P01138); assay: cell-based or functional assay
Target sequence in this assay (P01138 122-241 limits assumed): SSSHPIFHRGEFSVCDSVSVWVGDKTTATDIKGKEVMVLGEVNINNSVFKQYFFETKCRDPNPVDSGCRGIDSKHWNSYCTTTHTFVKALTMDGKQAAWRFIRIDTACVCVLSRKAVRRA

[3] = target: T1, human NGF; assay: BIAcore screening assay of Fab library clones (koff); assay type: binding
Method: Small scale expression in 96 wells plates was optimized for screening Fab libraries. Starting from E. coli transformed with a Fab library, colonies were picked to inoculate both a master plate (agar LB+Ampicillin (50 μg/ml)+2% Glucose) and a working plate (2 ml/well, 96 well/plate containing 1.5 mL of LB+Ampicillin (50 μg/ml)+2% Glucose). Both plates were grown at 30° C. for 8-12 hours. The master plate was stored at 4° C. and the cells from the working plate were pelleted at 5000 rpm and resuspended with 1 mL of LB+Ampicillin (50 μg/ml)+1 mM IPTG to induce expression of Fabs. Cells were harvested by centrifugation after 5 h expression time at 30° C., then resuspended in 500 μL of buffer HBS-EP ([…] buffer pH 7.4, 150 mM NaCl, 0.005% P20, 3 mM EDTA). Lysis of HBS-EP resuspended cells was attained by one cycle of freezing (−80° C.) then thawing at 37° C. Cell lysates were centrifuged at 5000 rpm for 30 min to separate cell debris from supernatants containing Fabs. The supernatants were then injected into the BIAcore plasmon resonance apparatus to obtain affinity information for each Fab. Clones expressing Fabs were rescued from the master plate to sequence the DNA and for large scale Fab production and detailed characterization as described below.
Affinities of anti-NGF Fabs and monoclonal antibodies were determined using the BIAcore300™ surface plasmon resonance (SPR) system (BIAcore, INC, Piscaway N.J.). CM5 chips were activated with N-ethyl-N′-(3-dimethylaminopropyl)-carbodimide hydrochloride (EDC) and N-hydroxysuccinimide (NHS) according to the supplier's instructions. Human NGF was diluted into 10 mM sodium acetate pH 4.0 and injected over the activated chip at a concentration of 0.005 mg/mL. Using variable flow time across the individual chip channels, two ranges of antigen density were achieved: 100-200 response units (RU) for detailed kinetic studies and 500-600 RU for screening assays. The chip was blocked with ethanolamine. […] HBS-EP buffer (0.01M HEPES, pH 7.4, 0.15 NaCl, 3 mM EDTA, 0.005% Surfactant […]) was used as running buffer for all the BIAcore assays.
A screening BIAcore assay was optimized to determine the affinity of Fab clones from libraries. Supernatants of small culture lysates were injected at 50 μl/min for 2 min. Dissociation times of 10 to 15 minutes were used for determination of a single exponential dissociation rate (koff) using BIAevaluation software. […] Clones showing improved (slower) koff values were expressed at large scale and full kinetic parameters, kon and koff, were determined on purified protein. The assay was capable of detecting differences in affinity that were approximately 2-fold or larger.
For affinity screening experiments, each library was further paired with the corresponding CDR-grafted light or heavy chain (for example, the H1/H2 library was paired with CDR-grafted light chain), the antibody was expressed, and affinity to human NGF of the individual clones was screened using the BIACORE surface plasmon resonance (SPR) system (BIAcore, Inc. Piscataway, N.J.) according to the manufacturer's instructions and as described above. koff, kon and KD were determined. Antibody clones were ranked based on koff rates, since generally most variation in affinity is seen in koff rates, and further because koff rates are independent of antibody concentration.
20-80 clones from each small library were screened using BIAcore analysis as described herein. Samples were simultaneously analyzed by BIAcore for binding affinity to NGF in one channel of the BIAcore chip and for presence of Fab by binding to a penta-histag antibody in another channel of the sensor chip, to detect the his tag at the C terminus of the heavy chain. Clones that expressed protein were classified as having the same affinity, worse affinity, better affinity or no binding, using koff to classify: The results of this analysis are shown in Table 5.
Target sequence in this assay (P01138 122-241): as the sequence (P01138 122-241 limits assumed) above

[4] = Table 3: heavy chain library clones paired with 6D5 light chain
[5] = Table 6: single CDR H3 or L3 mutation in 8L2-6D5 template

Chain of rat NGF (rat) (P25427 122-241 limits assumed): as the sequence (P01138 122-241 limits assumed) above, with S3T, I6V, R9M, M37T, D60A, D65E, M92T, G94D, V117A, A120G counted along it

Molecule: mouse antibody 911 (Fab)
- IC50, rat NGF-dependent survival of mouse E13.5 trigeminal neurons, 1.5 pM NGF [1]: 34.6 pM
- IC50, rat NGF-dependent survival of mouse E13.5 trigeminal neurons, 15 pM NGF [1]: 161 pM
- IC50, human NGF-dependent survival of mouse E13.5 trigeminal neurons, 1.5 pM NGF [2]: 63.5 pM
- IC50, human NGF-dependent survival of mouse E13.5 trigeminal neurons, 15 pM NGF [2]: 322 pM

- koff [3, 4]: 0.00038 s⁻¹
B1: H222: heavy chain library clone, CDRH1 SEQ ID NO:32, CDRH2 SEQ ID NO:33 (antibody, V domains shown)
VH: QVQLQESGPGLVKPSETLSLTCTVSGFSLIGYDVTWIRQPPGKGLEWIGGIWGDGTTDYNSAVKSRVTISKDTSKNQFSLKLSSVTAADTAVYYCARGGYYYGTSYYFDYWGQGTLVTVS
VL: DIQMTQSPSSLSASVGDRVTITCRASQDISNHLNWYQQKPGKAPKLLIYYISRFHSGVPSRFSGSGSGTDFTFTISSLQPEDIATYYCQQSKTLPYTFGQGTKLEIKRT

- koff [3, 5]: 0.0016 s⁻¹
B2: Y110R: 8L2-6D5 template with CDR H3 mutation Y110R (antibody, V domains shown)
VH: B1 VH with V34I, T35N, G50M, V63L, Y110R
VL: B1 VL

- koff [3, 5]: 0.0015 s⁻¹
B3: D109N: 8L2-6D5 template with CDR H3 mutation D109N (antibody, V domains shown)
VH: B1 VH with V34I, T35N, G50M, V63L, D109N
VL: B1 VL

- koff [3, 5]: 0.0022 s⁻¹
B4: T104S: 8L2-6D5 template with CDR H3 mutation T104S (antibody, V domains shown)
VH: B1 VH with V34I, T35N, G50M, V63L, T104S
VL: B1 VL

- koff [3, 4]: 0.00054 s⁻¹
B5: H227: heavy chain library clone, CDRH1 SEQ ID NO:40, CDRH2 SEQ ID NO:41 (antibody, V domains shown)
VH: B1 VH with V34I, T35S, G50Q, A62S
VL: B1 VL

- koff [3, 5]: 0.0014 s⁻¹
B6: Y107F: 8L2-6D5 template with CDR H3 mutation Y107F (antibody, V domains shown)
VH: B1 VH with V34I, T35N, G50M, V63L, Y107F
VL: B1 VL

- koff [3, 5]: 0.0014 s⁻¹
B7: Y110K: 8L2-6D5 template with CDR H3 mutation Y110K (antibody, V domains shown)
VH: B1 VH with V34I, T35N, G50M, V63L, Y110K
VL: B1 VL

- koff [3, 5]: 0.0012 s⁻¹
B8: Y100L: 8L2-6D5 template with CDR H3 mutation Y100L (antibody, V domains shown)
VH: B1 VH with V34I, T35N, G50M, V63L, Y100L
VL: B1 VL

- koff [3, 5]: 0.001 s⁻¹
B9: D109G: 8L2-6D5 template with CDR H3 mutation D109G (antibody, V domains shown)
VH: B1 VH with V34I, T35N, G50M, V63L, D109G
VL: B1 VL

- koff [3, 5]: 0.00122 s⁻¹
B10: F108W: 8L2-6D5 template with CDR H3 mutation F108W (antibody, V domains shown)
VH: B1 VH with V34I, T35N, G50M, V63L, F108W
VL: B1 VL

- koff [3, 4]: 0.00042 s⁻¹
B11: H18: heavy chain library clone, CDRH1 SEQ ID NO:36, CDRH2 SEQ ID NO:37 (antibody, V domains shown)
VH: B1 VH with V34A
VL: B1 VL

- koff [3, 5]: 0.0027 s⁻¹
B12: Y106M: 8L2-6D5 template with CDR H3 mutation Y106M (antibody, V domains shown)
VH: B1 VH with V34I, T35N, G50M, V63L, Y106M
VL: B1 VL

- koff [3, 5]: 0.002 s⁻¹
B13: Y106T: 8L2-6D5 template with CDR H3 mutation Y106T (antibody, V domains shown)
VH: B1 VH with V34I, T35N, G50M, V63L, Y106T
VL: B1 VL

- koff [3, 4]: 0.00061 s⁻¹
- Kd ([3]; Table 3: heavy chain library clones, KD calculated using kon 4e4 M^−1s^−1): 15.2 nM
B14: H17: heavy chain library clone, CDRH1 SEQ ID NO:42, CDRH2 SEQ ID NO:43 (antibody, V domains shown)
VH: B1 VH with V34A, T35S, A62S
VL: B1 VL

- koff [3, 5]: 0.0017 s⁻¹
B15: Y96R: 8L2-6D5 template with CDR L3 mutation Y96R (antibody, V domains shown)
VH: B1 VH with V34I, T35N, G50M, V63L
VL: B1 VL with Y96R

- koff [3, 5]: 0.0015 s⁻¹
B16: Y110S: 8L2-6D5 template with CDR H3 mutation Y110S (antibody, V domains shown)
VH: B1 VH with V34I, T35N, G50M, V63L, Y110S
VL: B1 VL

- koff [3, 4]: 0.00075 s⁻¹
B17: H28: heavy chain library clone, CDRH1 SEQ ID NO:44, CDRH2 SEQ ID NO:45 (antibody, V domains shown)
VH: B1 VH with V34S, G50S, V63L
VL: B1 VL

- koff [3, 5]: 0.0016 s⁻¹
B18: Y106R: 8L2-6D5 template with CDR H3 mutation Y106R (antibody, V domains shown)
VH: B1 VH with V34I, T35N, G50M, V63L, Y106R
VL: B1 VL

- koff [3, 5]: 0.0017 s⁻¹
B19: Y110T: 8L2-6D5 template with CDR H3 mutation Y110T (antibody, V domains shown)
VH: B1 VH with V34I, T35N, G50M, V63L, Y110T
VL: B1 VL

- koff [3, 4]: 0.00038 s⁻¹
B20: H225: heavy chain library clone, CDRH1 SEQ ID NO:34, CDRH2 SEQ ID NO:35 (antibody, V domains shown)
VH: B1 VH with A62S
VL: B1 VL

- koff [3, 5]: 0.0011 s⁻¹
B21: Y100R: 8L2-6D5 template with CDR H3 mutation Y100R (antibody, V domains shown)
VH: B1 VH with V34I, T35N, G50M, V63L, Y100R
VL: B1 VL
